According to US12551583B2, “Radiolabeled ligands for targeted PET/SPECT imaging and methods of their use” (MEMORIAL SLOAN KETTERING CANCER CENTER, priority 2016, dated 2026):

Tests used:
[1] = in vivo; details: female, BALB/c, mouse, iv, total radioactivity, 4T1 tumoral uptake
Procedure: (§1) 4T1 orthotopic BALB/c mouse model. The cells were removed from the flasks, concentrated, and resuspended in minimal media for cell counting. The cells were then diluted to contain approximately 1 million cells in 30 μL of media (for orthotopic allografts). Following an MSKCC Institutional Animal Care and Use Committee approved protocol, 8-10 week old BALB/c mice (Charles River Laboratories, Wilmington, MA) were surgically implanted with one million 4T1 cancer cells into the first or the last mammary fat pad of the right side of the animal using aseptic surgical techniques and sterile staple closures while the mice were under anesthetic. Additionally, mice were given injections of meloxicam (24 h pain killer) in the scruff and bupivacaine intradermally prior to surgical incisions. One day post surgery, the mice were again given meloxicam and checked to ensure that the closure was healing. Two and three days post surgery, the mice were checked to ensure that the animals were healthy and recovering well from the surgery. Five to seven days post surgery, the staples were removed. Five to nine days post surgery, the mice were injected with 50-75 μCi (0.9-0.4 nmol) of the respective radiopharmaceutical for in vivo biodistribution or 500-600 μCi (9-11 nmol) for in vivo imaging. The mice receiving ^64Cu-NOTA-pHLIP were sacrificed at 1, 2, 4, 12, 24, 36, and 48 h; the mice receiving [^18F]—AlF-NOTA-pHLIP were sacrificed at 0.5, 1, 2, 4, 6 and 8 h. The 4T1 tumors in this study were purposely used 5-9 days after inoculation to ensure lower tumoral pH. Animal models. Animal studies were conducted according to MSKCC IACUC-approved animal protocol. 4T1 (orthotopic breast cancer allografts of 1×10^6 cells surgically implanted in the mammary fat pad) and B16-F10 (orthotopic melanoma allografts of 1×10^5 cells injected intradermally on the shoulder) tumors were orthotopically inoculated in media in female BALB/c and C57Bl/6 mice (Charles River Laboratories (CRL)), respectively. Additionally, PC3 (3×10^6 cells) or LNCaP (3-6×10^6 cells) tumors were subcutaneously xenografted on the shoulder of athymic nude male mice (CRL). Mice were used once tumor volumes were approximately 90-300 mm^3. In vivo animal PET imaging and biodistribution. Mice were injected with radiolabeled NOTA-pHLIP derivatives i.v. (500-700 μCi/mouse for PET or SPECT imaging studies and 25-100 μCi/mouse for biodistribution studies). All injections were less than 200 μL with <10% EtOH in sterile PBS. PET images were obtained with the mice under anesthesia in an Inveon PET-CT or microPET Focus 120 (Siemens) at 0.5-48 h p.i. All images were analyzed using ASIPro VM (Concorde Microsystems). SPECT images were obtained with the mice under anesthesia in a NanoSPECT/CT Plus at 4-24 h p.i. All SPECT images were reconstructed using HiSPECT and analyzed using InVivoScope. Dissections for ex vivo biodistribution were performed on mice after CO2 asphyxiation or cervical dislocation while anesthetized at reported time points. Weight of the syringe prior to injection and after injection was used to determine the mass of injectate. Activity of the syringe prior to injection and after injection was used to determine the percent of injectate administered. The mass injected was corrected by the percent of radioactivity injected. Four to five aliquots (10 μL) were weighed and counted as internal standards for each study. All of the collected organs were counted using an automatic gamma counter (Wizard 3″, PerkinElmer, Waltham, MA). The total injected dose was found as the mass injected dose×fraction radioactivity injected×internal standard average counts/g. The percent injected dose (% ID) was determined as the counts for the tissue×100/total injected dose. The % ID/g was calculated as the % ID/tissue weight. The average and standard deviation of the % ID and % ID/g was determined using normal methods (n−1) for each set of mice.

[2] = tested on: PC3 tumor-bearing male nude mice; details: mouse, in vivo
Procedure: (§2) PC3 shoulder nude mouse xenografts. The cells were removed from the flasks, concentrated, and resuspended in minimal media for cell counting. The cells were then diluted to contain approximately 3 million cells in 150 μL of 1:1 media and matrigel (for shoulder xenografts). Following an MSKCC Institutional Animal Care and Use Committee approved protocol, 150 μL of the cell suspension was injected subcutaneously in 6-9 week old nude male mice (CRL). Mice were used in studies at 3 weeks post inoculation. The mice were injected with 50-75 μCi (0.9-0.4 nmol) of the respective radiopharmaceutical for in vivo biodistribution or 500-600 μCi (9-11 nmol) for in vivo imaging. […]
(§3) In vivo animal PET imaging and biodistribution. […] All images were analyzed using ASIPro VM (Concorde Microsystems). […] All SPECT images were reconstructed using HiSPECT and analyzed using InVivoScope. […] The mass injected was corrected by the percent of radioactivity injected. Four to five aliquots (10 μL) were weighed and counted as internal standards for each study. All of the collected organs were counted using an automatic gamma counter (Wizard 3″, PerkinElmer, Waltham, MA). The total injected dose was found as the mass injected dose×fraction radioactivity injected×internal standard average counts/g. The percent injected dose (% ID) was determined as the counts for the tissue×100/total injected dose. […]

[3] = tested on: LNCaP tumor-bearing male nude mice; details: mouse, in vivo
Procedure: as §2, with “LNCaP shoulder” for “PC3 shoulder”, “approximately 3-6” for “approximately 3”, “matrigel (or” for “matrigel (for”, “in 6-8” for “in 6-9”, “at 3-8” for “at 3”
as §3

[4] = tested on: 4T1 orthotopic tumor-bearing BALB/c mice; experiment: in vivo; details: mouse
Procedure: as §1

[5] = tested on: tumor; details: in vivo; cited from earlier work

With `CC(C)C[C@@H](NC(=O)[C@@H](CC(C)C)NC(=O)[C@@H](CC(=O)O)NC(=O)[C@@H](CC(C)C)NC(=O)[C@@H](CC(C)C)NC(=O)[C@@H](CC(C)C)NC(=O)[C@H](NC(=O)[C@@H](CC(=O)O)NC(=O)[C@H](NC(=O)[C@H]1CCCN1C(=O)[C@@H](Cc1ccccc1)NC(=O)[C@@H](CC(C)C)NC(=O)[C@@H](CC(C)C)NC(=O)[C@@H](CC(=O)O)NC(=O)[C@@H](CC(C)C)NC(=O)[C@@H](Cc1ccc(O)cc1)NC(=O)[C@@H](C)NC(=O)[C@@H](CCCNC(=N)N)NC(=O)[C@@H](Cc1c[nH]c2ccccc12)NC(=O)[C@H]1CCCN1C(=O)[C@@H](CC(N)=O)NC(=O)[C@@H](CCC(N)=O)NC(=O)[C@@H](CC(=O)O)NC(=O)[C@@H](CC(=O)O)NC(=O)[C@@H](CSC1CC(=O)N(CCNC(=O)CN2CCN(CC(=O)O)CCN(CC(=O)O)CC2)C1=O)NC(=O)[C@@H](C)N)[C@H](C)O)[C@H](C)O)C(=O)N[C@H](Cc1c[nH]c2ccccc12)C(=O)O` (single isomer, unassigned) [^64Cu-NO2A-cysVar3, metal not drawn] the tissue uptake at 24 h ([1]; 50 uCi) was 19.2 ± 1.8 %ID/g, the “tumor:bone ratio” value [2] was 2.7±0.6 and the “tumor:muscle ratio” value [2] was 7.4±1.3. For the same compound, the “tumor:bone ratio” value [3] was 4.2±1.7 and the “tumor:muscle ratio” value [3] was 6±2.

For `CC(C)C[C@@H](NC(=O)[C@@H](CCC(=O)O)NC(=O)[C@@H](CC(C)C)NC(=O)[C@@H](CC(C)C)NC(=O)[C@@H](CC(C)C)NC(=O)[C@H](NC(=O)[C@@H](CCC(=O)O)NC(=O)[C@H](NC(=O)[C@H]1CCCN1C(=O)[C@@H](Cc1ccccc1)NC(=O)[C@@H](CC(C)C)NC(=O)[C@@H](Cc1c[nH]c2ccccc12)NC(=O)[C@@H](CCC(=O)O)NC(=O)[C@@H](CC(C)C)NC(=O)[C@@H](Cc1ccc(O)cc1)NC(=O)[C@@H](CCCNC(=N)N)NC(=O)[C@@H](C)NC(=O)[C@@H](Cc1c[nH]c2ccccc12)NC(=O)[C@H]1CCCN1C(=O)[C@@H](CC(N)=O)NC(=O)[C@@H](CCC(N)=O)NC(=O)[C@@H](CCC(=O)O)NC(=O)[C@@H](CCC(=O)O)NC(=O)[C@@H](CS)NC(=O)[C@@H](C)NC(=S)Nc1ccc(CC2CN(CC(=O)O)CCN(CC(=O)O)CCN2CC(=O)O)cc1)[C@H](C)O)[C@H](C)O)C(=O)O` (single isomer, unassigned) [^64Cu-NOTA-Var7, metal not drawn], the kidneys-to-large intestine ratio [4] was 0.32±0.07, the “biodistribution, Blood” value ([4]; iv, 4 h) was 0.833 ± 0.068 % ID/g and the “biodistribution, Bone” value ([4]; iv, 4 h) was 0.229 ± 0.093 % ID/g. The “biodistribution, Brain” value ([4]; iv, 4 h) was 0.042 ± 0.004 % ID/g, the “biodistribution, Heart” value ([4]; iv, 4 h) was 0.35 ± 0.04 % ID/g and the “biodistribution, Kidneys” value ([4]; iv, 4 h) was 6.790 ± 0.461 % ID/g. For the same compound, the “biodistribution, L. intestine” value ([4]; iv, 4 h) was 7.78 ± 0.61 % ID/g, the “biodistribution, Liver” value ([4]; iv, 4 h) was 0.739 ± 0.041 % ID/g and the “biodistribution, Lungs” value ([4]; iv, 4 h) was 0.996 ± 0.066 % ID/g. For the same compound, the “biodistribution, Muscle” value ([4]; iv, 4 h) was 0.118 ± 0.025 % ID/g, the “biodistribution, Pancreas” value ([4]; iv, 4 h) was 0.198 ± 0.043 % ID/g and the “biodistribution, S. intestine” value ([4]; iv, 4 h) was 0.307 ± 0.077 % ID/g. For the same compound, the “biodistribution, Skin” value ([4]; iv, 4 h) was 0.563 ± 0.145 % ID/g, the “biodistribution, Spleen” value ([4]; iv, 4 h) was 0.279 ± 0.016 % ID/g and the “biodistribution, Stomach” value ([4]; iv, 4 h) was 0.300 ± 0.076 % ID/g. For the same compound, the “biodistribution, Tumor (4T1 tumoral uptake)” value ([4]; iv, 4 h) was 0.546 ± 0.075 % ID/g and the overall tumor uptake [5] was 1.36±0.43 % ID/g.

With `CC(C)C[C@@H](NC(=O)[C@@H](CC(C)C)NC(=O)[C@@H](CC(=O)O)NC(=O)[C@@H](CC(C)C)NC(=O)[C@@H](CC(C)C)NC(=O)[C@@H](CC(C)C)NC(=O)[C@H](NC(=O)[C@@H](CC(=O)O)NC(=O)[C@H](NC(=O)[C@H]1CCCN1C(=O)[C@@H](Cc1ccccc1)NC(=O)[C@@H](CC(C)C)NC(=O)[C@@H](CC(C)C)NC(=O)[C@@H](CC(=O)O)NC(=O)[C@@H](CC(C)C)NC(=O)[C@@H](Cc1ccc(O)cc1)NC(=O)[C@@H](C)NC(=O)[C@@H](CCCNC(=N)N)NC(=O)[C@@H](Cc1c[nH]c2ccccc12)NC(=O)[C@H]1CCCN1C(=O)[C@@H](CC(N)=O)NC(=O)[C@@H](CCC(N)=O)NC(=O)[C@@H](CC(=O)O)NC(=O)[C@@H](CC(=O)O)NC(=O)[C@@H](CSC1CC(=O)N(CCNC(=O)CN2CCN(CC(=O)O)CCN(CC(=O)O)CC2)C1=O)NC(=O)[C@@H](C)N)[C@H](C)O)[C@H](C)O)C(=O)N[C@H](Cc1c[nH]c2ccccc12)C(=O)O` (single isomer, unassigned) [^67Ga-NO2A-cysVar3, metal not drawn] the tissue uptake at 24 h ([1]; 500 uCi) was 34 ± 3 %ID/g, the 4T1 tumoral uptake ([4]; female, BALB/c, iv, 50 uCi, 24 h) was 26±4 % ID/g and the “biodistribution, Tumor (4T1 tumoral uptake)” value ([4]; female, BALB/c, iv, 4 h) was 12±3 % ID/g.
